Assay results from US20260132208A1 (DOMAIN THERAPEUTICS, published 2026).
Values belong to the binder of their own block, whether it stands above or below them.

What was measured:
human CCR8 = human CCR8 (human, UniProt P51685 1-355); test: cell-based or functional assay
[1] = target: T1, human CCR8 with a SNAP-tag at the N-terminus (human, UniProt P51685 1-355, SNAP-tag labelled covalently with Lumi4-Terbium); test: HTRF Tag-lite, inhibition of hCCL1-AF647 binding to SNAP-hCCR8 on HEK-293 cells
T1 construct: also called hCCR8 SNAP-tag; CCR8 SNAP-tag
Procedure: The inhibition of CCL1 binding to hCCR8 was evaluated with the Tag-Lite® technology from Cisbio (Revvity). Human CCR8 is engineered with a SNAP-tag at the N-terminus of the GPCR. hCCR8 SNAP-tag is transiently transfected on HEK-293 cell line using FuGene® (Promega, Madison, WI, USA). 48 hours after transfection, cells are labeled with the substrate Lumi4-Terbium® (Cisbio, Codolet, France) which covalently reacts with the SNAP-tag, for 1 h at 37° C. Thawed or freshly labeled cells are plated in a 384 low volume white plate (GREINER Bio-One, Courtaboeuf, France) (10000 cells/well/10 μl). […] The Kd was previously obtained in a saturation binding assay on the same cells. […] The plate is next incubated at 21° C. for 2 h. Detection of HTRF signal is performed on the multiplate reader EnVision (PerkinElmer, Waltham, MA, USA). The HTRF (665/620) ratio is calculated by EnVision software, the data exported are considered as the total binding. The specific binding is calculated then by subtracting the non-specific signal from the total binding. The Ki and IC₅₀ are calculated using the “One site-Fit Ki” and “One site-FitlogIC50” from GraphPad Prism 9 (Graphpad Software, San Diego, CA, USA), respectively.

ADCC % max lysis, HUT78 targets, NK donor 3 (human CCR8): 16% | ADCC % max lysis, HUT78 targets, NK donor 4 (human CCR8): 19% | ADCC EC50, HUT78 targets, NK donor 3 (human CCR8): 0.349 nM | ADCC EC50, HUT78 targets, NK donor 4 (human CCR8): 1.91 nM
B1: anti-CCR8 mAb 1-25 (antibody, human IgG1, kappa, V domains shown)
VH: QVQLVESGGGVVQPGRSLRLSCAASGFTFSNYRMHWVRQAPGKGLEWIAVIKVKSDNYGANYADSVKGRFTISRDNSKNTLYLQMNSLRAEDTAVYYCSSPTYPGSSGFAYWGQGTLVTVSS
VL: DIQMTQSPSSLSASVGDRVTITCRASQDISNYLNWYQQKPDGTVKLLIYYTSRLHTGVPSRFSGSGSGTDYTLTISNLQQEDIATYFCQQGNKFPPTFGGGTKVEINR
notes: Humanized mAb, human IgG1 / kappa

IC50 [1]: 0.1 to 1 nM
B2: anti-CCR8 mAb 1-22 (antibody, human IgG1, kappa, V domains shown)
VH: EVQLLESGGGLVQPGGSLRLSCAASGFTFNAYAMNWVRQAPGKGLEWVARIRSKSNDYATYYGDSVKGRFTISRDNSKNTLYLQMNSLRAEDTAVYYCVRGREAYYRYDGGYYAMDVWGQGTTVTVSS
VL: DIVMTQSPLSLPVTPGEPASISCRSSKSLLHSNGNTYLYWFLQKPGQSPQLLIYRVSNLASGVPDRFSGSGSGTDFTLKISRVEAEDVGVYYCMQHREYPFTFGQGTKLEIKR
notes: as for B1
